Source: publication PMC11260452, “Cooperative Gsx2–DNA binding requires DNA bending and a novel Gsx2 homeodomain interface”
Residue numbers refer to the chain shown, from its start.

Experiments:
Gsx2 167-305 [1] = target: T1, Gsx2 167-305 (Mus musculus, UniProt P31316 167-305); experiment: ITC; K 1.3 ± 0.6 x10^7 M-1; N 0.85; ITC: 50 mM sodium phosphate pH 6.5, 150 mM NaCl, 20 C; EMSA: 35 nM probe, 15 min room temperature, buffer as in cited ref 31; details: protein: recombinant; tags: N-terminal His-tag, cleaved with PreScission; chain copies: 2; 5' overhang 1 nt on each strand
T1 sequence (P31316 167-305): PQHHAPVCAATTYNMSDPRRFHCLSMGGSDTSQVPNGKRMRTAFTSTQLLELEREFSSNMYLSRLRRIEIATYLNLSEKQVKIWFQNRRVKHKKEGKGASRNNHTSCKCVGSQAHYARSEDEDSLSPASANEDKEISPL

Gsx2HD [2] = target: T2, Gsx2HD (Mus musculus, UniProt P31316 203-264); experiment: ITC; K 6.8 ± 4.2 x10^7 M-1; N 1.02; ITC: 50 mM sodium phosphate pH 6.5, 150 mM NaCl, 20 C; EMSA: 35 nM probe, 15 min room temperature, buffer as in cited ref 31; details: protein: recombinant; tags: N-terminal His-tag, cleaved with PreScission; chain copies: 2; 5' overhang 1 nt on each strand
T2 sequence (P31316 203-264): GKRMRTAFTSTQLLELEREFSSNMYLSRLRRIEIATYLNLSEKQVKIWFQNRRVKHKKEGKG

Gsx2HD I234E = Gsx2HD I234E (Mus musculus, UniProt P31316 203-264, I234E); experiment: ITC; K 5.1 ± 4.2 x10^7 M-1; N 1.05; Fig S6 isotherm 14.7 nM; ITC: 50 mM sodium phosphate pH 6.5, 150 mM NaCl, 20 C; EMSA: 35 nM probe, 15 min room temperature, buffer as in cited ref 31; details: protein: recombinant; tags: N-terminal His-tag, cleaved with PreScission; 5' overhang 1 nt on each strand
Chain of Gsx2HD I234E (P31316 203-264 I234E): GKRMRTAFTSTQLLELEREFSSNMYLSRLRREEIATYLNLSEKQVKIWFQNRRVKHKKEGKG

Gsx1HD [3] = target: T3, Gsx1HD (Mus musculus, UniProt P31315 146-207); experiment: ITC; K 5.5 ± 0.8 x10^7 M-1; N 0.96; ITC: 50 mM sodium phosphate pH 6.5, 150 mM NaCl, 20 C; EMSA: 35 nM probe, 15 min room temperature, buffer as in cited ref 31; details: protein: recombinant; 5' overhang 1 nt on each strand
T3 sequence (P31315 146-207): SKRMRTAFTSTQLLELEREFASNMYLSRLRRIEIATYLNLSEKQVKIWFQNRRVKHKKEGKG

Gsx2 167-305 [4] = target: T1, Gsx2 167-305; experiment: EMSA; similar free probe depletion, lower cooperativity; ITC: 50 mM sodium phosphate pH 6.5, 150 mM NaCl, 20 C; EMSA: 35 nM probe, 15 min room temperature, buffer as in cited ref 31; details: protein: recombinant; tags: N-terminal His-tag, cleaved with PreScission; chain copies: 2; label: 5' IRDye700 on complementary strand (linker S14); blunt
Gsx2HD L216E [5] = target: T4, Gsx2HD L216E (Mus musculus, UniProt P31316 203-264, L216E); experiment: EMSA; binds; reduced cooperativity; ITC: 50 mM sodium phosphate pH 6.5, 150 mM NaCl, 20 C; EMSA: 35 nM probe, 15 min room temperature, buffer as in cited ref 31; details: protein: recombinant; tags: N-terminal His-tag, cleaved with PreScission; label: 5' IRDye700 on complementary strand (linker S14); blunt
T4 sequence (P31316 203-264 L216E): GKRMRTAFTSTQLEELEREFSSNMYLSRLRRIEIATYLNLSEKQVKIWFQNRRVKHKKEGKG

Gsx2HD S212E [6] = target: T5, Gsx2HD S212E (Mus musculus, UniProt P31316 203-264, S212E); experiment: as above; details: protein: recombinant; tags: N-terminal His-tag, cleaved with PreScission; label: 5' IRDye700 on complementary strand (linker S14); blunt
T5 sequence (P31316 203-264 S212E): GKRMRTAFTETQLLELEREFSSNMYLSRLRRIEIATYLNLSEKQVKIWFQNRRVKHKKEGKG

Gsx2HD L231E [7] = target: T6, Gsx2HD L231E (Mus musculus, UniProt P31316 203-264, L231E); experiment: as above; details: protein: recombinant; tags: N-terminal His-tag, cleaved with PreScission; label: 5' IRDye700 on complementary strand (linker S14); blunt
T6 sequence (P31316 203-264 L231E): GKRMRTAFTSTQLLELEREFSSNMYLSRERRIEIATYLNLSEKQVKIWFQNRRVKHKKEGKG

Gsx1HD [8] = target: T3, Gsx1HD; experiment: ITC; K 2.4 ± 0.9 x10^7 M-1; N 0.97; ITC: 50 mM sodium phosphate pH 6.5, 150 mM NaCl, 20 C; EMSA: 35 nM probe, 15 min room temperature, buffer as in cited ref 31; details: protein: recombinant; 5' overhang 1 nt on each strand
Gsx2 167-305 [9] = target: T1, Gsx2 167-305; experiment: ITC; K 0.7 ± 0.2 x10^7 M-1; N 0.94; ITC: 50 mM sodium phosphate pH 6.5, 150 mM NaCl, 20 C; EMSA: 35 nM probe, 15 min room temperature, buffer as in cited ref 31; details: protein: recombinant; tags: N-terminal His-tag, cleaved with PreScission; chain copies: 2; 5' overhang 1 nt on each strand
Gsx2HD [10] = target: T2, Gsx2HD; experiment: ITC; K 2.8 ± 1.4 x10^7 M-1; N 0.98; ITC: 50 mM sodium phosphate pH 6.5, 150 mM NaCl, 20 C; EMSA: 35 nM probe, 15 min room temperature, buffer as in cited ref 31; details: protein: recombinant; tags: N-terminal His-tag, cleaved with PreScission; chain copies: 2; 5' overhang 1 nt on each strand
Gsx2HD L216E [11] = target: T4, Gsx2HD L216E; experiment: EMSA; binds equally to WT; little to no cooperativity; ITC: 50 mM sodium phosphate pH 6.5, 150 mM NaCl, 20 C; EMSA: 35 nM probe, 15 min room temperature, buffer as in cited ref 31; details: protein: recombinant; tags: N-terminal His-tag, cleaved with PreScission; label: 5' IRDye700 on complementary strand (linker S14); blunt
Gsx2HD S212E [12] = target: T5, Gsx2HD S212E; experiment: as above; details: protein: recombinant; tags: N-terminal His-tag, cleaved with PreScission; label: 5' IRDye700 on complementary strand (linker S14); blunt
Gsx2HD L231E [13] = target: T6, Gsx2HD L231E; experiment: as above; details: protein: recombinant; tags: N-terminal His-tag, cleaved with PreScission; label: 5' IRDye700 on complementary strand (linker S14); blunt

B1: TAATTA consensus 15-mer (dsDNA)
DNA 1: TGAGCTAATTAAAGC
DNA 2: AGCTTTAATTAGCTC
In the case of B1, the Kd (Gsx2 167-305 [1]) is reported as 77 nM, the Kd (Gsx2HD [2]) is reported as 15 nM and the Kd (Gsx2HD I234E) is reported as 20 nM. The Kd (Gsx1HD [3]) was 18 nM.

B2: GCGGG spacer dimer probe (dsDNA)
DNA 1: TCCAACTAATTAGCGGGTAATTCGTAGTGCGGGCGTGGCT
DNA 2: AGCCACGCCCGCACTACGAATTACCCGCTAATTAGTTGGA
For B2, the “cooperativity factor (tau)” value (Gsx2 167-305 [4]) was 12.6 tau cooperativity factor (mean of 3 G/C spacer probes).

B3: GCCGG spacer dimer probe (dsDNA)
DNA 1: B2 DNA 1 with G15C
DNA 2: B2 DNA 2 with C26G
With B3 the “cooperativity factor (tau)” value (Gsx2 167-305 [4]) was 12.6 tau cooperativity factor (mean of 3 G/C spacer probes).

B4: 7bpS / AAATT spacer dimer probe (dsDNA)
DNA 1: B2 DNA 1 with G13A, C14A, G15A, G16T, G17T
DNA 2: B2 DNA 2 with C24A, C25A, C26T, G27T, C28T
B4: binds (Gsx2HD L216E [5]); binds (Gsx2HD S212E [6]); binds (Gsx2HD L231E [7]).

B5: GGGCC spacer dimer probe (dsDNA)
DNA 1: B2 DNA 1 with C14G, G16C, G17C
DNA 2: B2 DNA 2 with C24G, C25G, G27C
With B5 the “cooperativity factor (tau)” value (Gsx2 167-305 [4]) was 12.6 tau cooperativity factor (mean of 3 G/C spacer probes).

B6: TAATGG 15-mer (Common Q50 site) (dsDNA)
DNA 1: TGAGCTAATGGAAGC
DNA 2: AGCTTCCATTAGCTC
B6 gave a Kd (Gsx1HD [8]) of 42 nM, a Kd (Gsx2 167-305 [9]) of 143 nM and a Kd (Gsx2HD [10]) of 36 nM.

B7: 8bpS dimer probe (dsDNA)
DNA 1: TCCAACTAATTAAAGATTTAATTCGTAGTGCGGGCGTGGCT
DNA 2: AGCCACGCCCGCACTACGAATTAAATCTTTAATTAGTTGGA
B7: binds (Gsx2HD L216E [11]); binds (Gsx2HD S212E [12]); binds (Gsx2HD L231E [13]).
